Reference: patent publication US20170298096A1 (CANIMGUIDE THERAPEUTICS, published 2017)
No end group written: not given here.

Biological target: T1, His-tagged P3028 (human, not fully specified)
T1 construct: the tag is put first after 'PGE73=His-tag-P3028'; also called PGE73; not shown: His-tag
T1 peptide: {His‑tag}-VFDEFKPLVEEPQNLIK
Assay: chip ELISA
KKLATFFVKLSLFTER [P28R D4A] was tested, and the ELISA signal was 494.
KKLDTEFVKLSLFTER [P28R F6E] showed an ELISA signal of 229.
Work on KKLDTLFVKLSLFTER [P28R F6L] yielded an ELISA signal of 408.
KKLDTFEVKLSLFTER [P28R F7E] showed an ELISA signal of 381.
KKLDTFFVKLSLFTWR [P28R E15W] was tested, and the ELISA signal was 226.
KKLRTFFVKLSLFTER [P28R D4R] showed an ELISA signal of 317.
KKLITFFVKLSLFTER [P28R D4I] gave an ELISA signal of 430.
In the case of KKLDTFFVKLSLFTRR [P28R E15R], the ELISA signal is reported as 237.
KKLETFFVKLSLFTER [P28R D4E] was tested, and the ELISA signal was 417.
Binder KKLDTFFVKLSLFTLR [P28R E15L] has an ELISA signal of 246.
Work on KKLDTMFVKLSLFTER [P28R F6M] yielded an ELISA signal of 467.
KKLDTFFVKLSLFTDR [P28R E15D] was tested, and the ELISA signal was 404.
In the case of KKLWTFFVKLSLFTER [P28R D4W], the ELISA signal is reported as 443.
Work on KKLNTFFVKLSLFTER [P28R D4N] yielded an ELISA signal of 296.
KKLKTFFVKLSLFTER [P28R D4K] gave an ELISA signal of 274.
KKLSTFFVKLSLFTER [P28R D4S] showed an ELISA signal of 344.
Work on KKLDTFFVKLSLFTQR [P28R E15Q] yielded an ELISA signal of 344.
With KKLDTFFVKLSLFTYR [P28R E15Y] the ELISA signal was 340.
For KKLDTFFVKLSLFTSR [P28R E15S], the ELISA signal was 165.
KKLDTFFVKLSLFTVR [P28R E15V] gave an ELISA signal of 163.
For KKLDTNFVKLSLFTER [P28R F6N], the ELISA signal was 446.
Work on KKLDTRFVKLSLFTER [P28R F6R] yielded an ELISA signal of 309.
KKLDTVFVKLSLFTER [P28R F6V] gave an ELISA signal of 547.
For KKLDTFFVKLSLFTHR [P28R E15H], the ELISA signal was 318.
In the case of KKLTTFFVKLSLFTER [P28R D4T], the ELISA signal is reported as 405.
KKLDTHFVKLSLFTER [P28R F6H] was tested, and the ELISA signal was 332.
Binder KKLDTFFVKLSLFTNR [P28R E15N] has an ELISA signal of 161.
Work on KKLDTFFVKLSLFTAR [P28R E15A] yielded an ELISA signal of 174.
KKLDTAFVKLSLFTER [P28R F6A] was tested, and the ELISA signal was 575.
Work on KKLLTFFVKLSLFTER [P28R D4L] yielded an ELISA signal of 303.
Binder KKLDTTFVKLSLFTER [P28R F6T] has an ELISA signal of 481.
Work on KKLDTIFVKLSLFTER [P28R F6I] yielded an ELISA signal of 466.
Work on KKLDTWFVKLSLFTER [P28R F6W] yielded an ELISA signal of 348.
In the case of KKLDTKFVKLSLFTER [P28R F6K], the ELISA signal is reported as 309.
In the case of KKLDTFFVKLSLFTKR [P28R E15K], the ELISA signal is reported as 324.
Binder KKLFTFFVKLSLFTER [P28R D4F] has an ELISA signal of 380.
Binder KKLYTFFVKLSLFTER [P28R D4Y] has an ELISA signal of 422.
With KKLDTQFVKLSLFTER [P28R F6Q] the ELISA signal was 410.
With KKLDTYFVKLSLFTER [P28R F6Y] the ELISA signal was 364.
KKLDTFFVKLSLFTMR [P28R E15M] showed an ELISA signal of 247.
In the case of KKLDTFAVKLSLFTER [P28R F7A], the ELISA signal is reported as 426.
KKLMTFFVKLSLFTER [P28R D4M] was tested, and the ELISA signal was 384.
KKLDTDFVKLSLFTER [P28R F6D] showed an ELISA signal of 193.
Binder KKLVTFFVKLSLFTER [P28R D4V] has an ELISA signal of 424.
Work on KKLDTFDVKLSLFTER [P28R F7D] yielded an ELISA signal of 301.
In the case of KKLDTFFVKLSLFTFR [P28R E15F], the ELISA signal is reported as 137.
With KKLDTFFVKLSLFTIR [P28R E15I] the ELISA signal was 163.
KKLDTSFVKLSLFTER [P28R F6S] was tested, and the ELISA signal was 432.
With KKLHTFFVKLSLFTER [P28R D4H] the ELISA signal was 317.
KKLQTFFVKLSLFTER [P28R D4Q] gave an ELISA signal of 345.
Binder KKLDTFFVKLSLFTTR [P28R E15T] has an ELISA signal of 152.

Biological target: T2, His-tagged P3028 (human, also: His-tag, terminus and sequence not given here)
T2 construct: in solution at 0.5 ug/mL over the peptide cards; found with anti-His-tag antibody and rabbit anti-mouse peroxidase (rampo); also called PGE73; not shown: His-tag
T2 peptide: VFDEFKPLVEEPQNLIK
Assay: PEPSCAN chip ELISA, His-P3028 in solution;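 also: score is the raw OD at 405 nm from peroxidase colour with ABTS, imaged by CCD camera before and after staining, with wells showing air bubbles set to zero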
In the case of KKLDTFFQKLSLFTER [SEQ ID NO 513], the “RAMPO Score” value is reported as 271 rampo score.
For KKLDTFFVNLSLFTER [SEQ ID NO 518], the “RAMPO Score” value was 256 rampo score.
KKLDTFFVWLSLFTER [SEQ ID NO 526] was tested, and the “RAMPO Score” value was 245 rampo score.
In the case of KKLDKFFVKLSLFTER [SEQ ID NO 530], the “RAMPO Score” value is reported as 237 rampo score.
In the case of KKLDTFFVKLSLFYER [SEQ ID NO 514], the “RAMPO Score” value is reported as 270 rampo score.
With KKLDTFFVKLSLFTRR [SEQ ID NO 531] the “RAMPO Score” value was 237 rampo score.
With KKLDTFFVKLSLFTLR [SEQ ID NO 525] the “RAMPO Score” value was 246 rampo score.
With KKLDTFFVVLSLFTER [SEQ ID NO 523] the “RAMPO Score” value was 248 rampo score.
For KKLDTFFVKLSLFKER [SEQ ID NO 517], the “RAMPO Score” value was 259 rampo score.
With KKLDTFFVKLSLFTMR [SEQ ID NO 524] the “RAMPO Score” value was 247 rampo score.
With KKLDTFFVKLSLFTEV [SEQ ID NO 521] the “RAMPO Score” value was 254 rampo score.
KKLDTFFVKLSLFCER [SEQ ID NO 520] was tested, and the “RAMPO Score” value was 254 rampo score.
KKLDTFFVKLELFTER [SEQ ID NO 532] was tested, and the “RAMPO Score” value was 234 rampo score.
In the case of KKLDTFFVKLFLFTER [SEQ ID NO 522], the “RAMPO Score” value is reported as 250 rampo score.
For KKLDTFFVELSLFTER [SEQ ID NO 527], the “RAMPO Score” value was 240 rampo score.
KKLDTFFCKLSLFTER [SEQ ID NO 519] was tested, and the “RAMPO Score” value was 254 rampo score.
KKLDTFFVKLSLFTEH [SEQ ID NO 528] was tested, and the “RAMPO Score” value was 239 rampo score.
With KKLGTFFVKLSLFTER [SEQ ID NO 515] the “RAMPO Score” value was 264 rampo score.
In the case of KKLDTFFVKLSLFTEM [SEQ ID NO 529], the “RAMPO Score” value is reported as 238 rampo score.
